Experimental data as given in the domain aggregation screens of Martell et al. (2025).

Test: soluble fraction after stress (log2 fold change); higher = more stays soluble; pooled small domains, quantitative proteomics
Conditions: stress: 50 degC
Summary of the method: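 The stress applied to every library was 50°C. These custom libraries of small protein domains were pooled and measured at high throughput with quantitative proteomics as the read-out. Aggregation propensity is expressed as the base-two logarithm of the fold change in how much of each protein remains soluble. The higher the value, the more of that protein stays in solution.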

| Sequence | soluble fraction (log2) |
| --- | --- |
| HMRFGNHHVYRTLMVLSDQKRKGRKQIADAVGIGEGSMRTIIEYLRGLDMIDIRQTGVKITRHGNAFL | 0.0164 |
| HMSLSKEEFETISKQVLELAGAGPIPVKELLQKMERTSKEKAWKVIEFLQAEDKIVPDATGRIQL | -0.068 |
| HMGGPTARQMEVLSLIAQGLPNKRIADELGIAERTVKLHITALLDSLGARNRTHLLVVARERGM | -2.21 |
| HMEPVTETVYAMDTVNIRAAADQTSEKIGSVTVGTALTRTGTDGDWSIIDYNGTTGYVKSEFLSNTAPEV | -0.00262 |
| HMSGIESIVIPLKGLDFDMISSTLTPQLKQAIKYDKQSDSIILVGTNAKVNIIAKQVNAMVEVYKLKT | -0.444 |
| HMAKNDSGLNNHTFNTIRDALQKALTDGPQEAKKLTENLPFPADKIITVIRYLADHDEHFSLEDGIISLT | 0.24 |
| HMQSEESTHIGERMLNQALRAMHVEPSAVKEKQWEKLIRDYSVKNKQDILTDIGLGKRQSVMVAHQLLAI | 0.0574 |
| HMHDHKTRLQELAAQRFGSAPSYLLTADGPAHDRRFHASVEVGGRSFGPGTGKSKKRAEQVAAHIAWDALS | 0.394 |
| HMNSIQEQIEKYVYSLAPVTIERYESLKNGDIEDIEFEKLRKSISSKIINEKIDNKKQVAILSHLKKMYSD | 0.0107 |
| HMGNEMQVPNVAGKTVDEAIEIFNNMGLKVAAENKYAQSDDVKEGDVVKTDPSSGRNVKKGSEITLYISQG | 0.0976 |
| HMEPFEQLLDRITSQTGKEPEEVVARMNELITERFDGNIRPEAALVIVAKRDNIQFMDLLDQLKQALL | -0.516 |
| HMLYITEIQKKIMDAFLVVANESNSGTRITMNEIANKVRMTPQAIYRKHFKSVIEISDTIRD | -0.531 |
| HMQYYITKIANYDQVSPNLLVRTAEGQYMVKTNADILDTDVTKLTEEEIRKDWGYLFENGFSELV | -0.814 |
| HMKELLDRIFLHETMRRVSQDATITFSKKVYEVPQKFIGRQVTVQYDPEDLSRVYVKDLNFPEPVMVYPVQ | -0.843 |
| HMRGETSYANDIIKRLKQANLIVVEGTLYPLLNRLKKDGLLHYEWRESQQGPPRKYYGLTEEGEA | -0.132 |
| HMSADLVYLRKRLQDAIAQLPENMRTAYTLFQIANRSIREISELTGASESLVKVRIHRAKGKLQKQLEDLK | -1.33 |
| HMPTFAEKLHEVRKARDFTQDQLAKEMNVSRQTISHWENGRAVPDIDTIKHLSQVLDYNFLV | 0.124 |
| HMFDMLGDQIKKYRKEKKMSQEELAIPLNVVRQTVSKWENNLSVPDAELLIRLAEVLEISVAELLGT | -0.108 |
| HMDLDIRDDIYRANIPNDYKLQQMQNNIDYDKVLTGYYNNRPEANVIANRTLQLANDVYNRD | -0.0187 |
| HMSRAMFEMHADWQPTDSIRGLLGRAGLPTDIAKLDQSRIGDFVNHWFGKPDRNTADSWNGLLVGWLKRTQ | -1.18 |
| HMANGTVKWFNTTKGFGFIAPETGGKDVFVHISAVERSGLTGLADDQKVTFDVEAGRDGRESAVNLAL | 0.0396 |
| HMTNIDRLIGQTAIVKETINNKKEQGVVRINGMDWTARTEEIDEVILKGKPVEILDIQGIKLIVRKK | -0.153 |
| HMDKEPTHLHTFRLIKEGKSSEEIAEIRNITLGTVNTHLAKLIAVGELTIEQVISKHRLDYVMEAIKNSK | -0.16 |
| HMDTNPKVIITMDGVNVRSSASTGSDILFIAEKGEEYELISESGDFYKILYEGNKEGYVASWLVETSE | 0.0987 |
| HMDDVGYLRKRLQQALAQLSDDLRNTYTLFQIGKQSIKQIAAETGASESLVKVRIHRAKQKLQELLADLQ | -0.987 |

| Sequence | soluble fraction (log2) |
| --- | --- |
| HMSKSIELMNEIKKYIEEYYLQYRQSPSTTKIAEAVGIARGTAYKYLVEMSERNMIEYDGQEISTEVTRKY | -0.0213 |
| HMRPLISQTLRIDRGEGDIAGPLGVLAKEYPHLSMGSYPFQKDGIYGAHVVIRGSDPGMVEAAMDKLKAAF | 0.018 |
| HMQRYYDVLGLQKGVSPEELKKTYRELSKKYHPDAHHNSPLRDLAEAKFKEINEAYEKIKEFLDNNF | 0.15 |
| HMDYKAELDNIIRDHLDMEGPLLPVLHAVMARFSYIPKDAIPIIARKLNLSSAEVSGVISFYHDFKKEK | -0.561 |
| HMGIRQGKVTSTFVNVRSGASTANAKVGELHKGDVVSLIEKVANFWRIGPGQFVSADYIQVLAS | -0.508 |
| HMTGSAETRGITLTDEQVTVWAKDGSWANYVYRATDGNWYDGSGRLYYENGGGEWTQAATGEQGS | -0.0258 |
| HMADLIIMSSDATEKQVDKVINKIKNMGFNVNISKGTEKTIIGIIGDTRGISDEVFKIMPGVIEVISILRD | -0.39 |
| HMHAPRIEVVQIDPEKIGALIGPGGKNIRRITEVTGANLDIDEDNSGKIRVYASDSEAMNRALQEIDLVT | 0.193 |
| HMVNEALDEFFVGLKNLYESATGKPAIAGAHFDGEPKTDFEKLMYLGYQIIRPAQAYPSALKAYERAIARS | -0.173 |
| HMSYPFSEDALKEKIREYLKHNRSINRKVLEAEFHIRKQTALNWLKKLEKSGFLIKEGSRNAPVYFLAE | -0.832 |
| HMNDLKEDTITVQSVEYIDSDDGTMVYIKDTNHQVYKQAFKEDESLIRISAGDVLHVKYQPMDNEIHLL | -0.364 |
| HMINLNEVLANFQKSYPNLAGFKYDQGMDALVYEGNYIRLNGYMLSRINPTLFSMSPDDIFTYLKNGF | -2.53 |
| HMSLAATLSPREIDTVRLIAVGSSNKEIARQLGIAETTVKIHVQHILRKLNLTSRVQVAVFANAEGII | -0.801 |
| HMTNEPRLTNMGFNKMLIENYKMILEYQDFFIRISTQIGIININGFDLKLGEMTADEVLVTGKIESIDL | 0.53 |
| HMVKNYYEILEVDKKASPEVIEKAYKTLAKKYHPDLQEAENNGQYEEKMKEINEAYSVLSDEFKRRTYDEQ | 0.114 |
| HMINFSKNIISDTTSIKEAIEILNIISGRDNHILFVLNDKRQLIGTLSDGDVRRGMLASKTISQSVTEVM | -0.351 |
| HMDVQNLTKKNQEFINIVTHQLLQSGKSDEDIQTILAKTLPEIIEKQKQGIPARSFLGAPTAWAAQFI | 0.133 |
| HMAILDTALDVLSMNLKDNYTSFQILRQAAIAGKIAFNLTEKNPLGGVIEVELTGDDLETWIEAATW | -0.115 |
| HMEENNIVIYITGAVKKEGIYEIKENSRISDAIEAAGGLLENANIKDINLAYIIEDGVKIYIPTNEEVNK | -0.192 |
| HMKTGHLPVTVIIDGRIISDNLYKTGLSNNWLADQLRKNSIKSSEDVFFAYLNPERKFIYQLRSNS | -1.01 |
| HMHSKQRDAIFENLRSRKDHPTAEEIYLSLKPAMPAISLATVYRNLAQLENEGLILRLGSGGSARYDGDT | -0.441 |
| HMYGVAEFDEKGNVLSIEEKPVQPKSNYAVVGLYFYPNKVVGVASGIKPSARGELEITTVNQTFLRDEELK | 0.0827 |
| HMKASTRELLDFVLSQRGVSTASVAKALGISVQNASTRLKKLSNEGLIIRSEASSLTGGIEFLYS | -0.799 |
| HMAPAPYLVKVTANKLNIRSGPGTNYKIQGAITDKGTYTIVDTQGRWGKLKSGAGWIYLNYTKK | -1.9 |
| HMIERLVVSPAAGVFTKKMSVENNTRIDVGHVLGHVGETEVRSPFAGILQNYIAVDGERLTAHQPIAWLRS | 0.00717 |

| Sequence | soluble fraction (log2) |
| --- | --- |
| HMVKTANVAYSEFLKLVESDNISDVSIVGRTITGHLDDGTKFSTYTPPNDPSLIDKLTRKNVIIKSAPE | -0.00389 |
| HMESLGEKIKNIRISNNLKQSELADILHISEKTISSWENNRTTPDLNMIYKISNYFKKSFYYLISDDYI | -1.02 |
| HMPVSLHEQIQQARIRAEQNVEGISLLLQVNPKYYEQIEAGDVIPDQDLLKRISSLFGWNYHEMLHREKSS | -0.239 |
| HMVGEQISYIPLKFATASEVVKSLTSMFQQQKGIAPIRIVAEERTNAILLLASEADTARVKNLIAMMDKGV | -0.0246 |
| HMVVVPDVKGLKIEEAAEFFKNNNLHYNVIDSVFSKDVEPGAIVELSPLAGSKVKEGRIVFITVNALTS | -0.651 |
| HMTQSQSLQSQFEQLEKAYQDNLHLLSPKQKLIIQEAGKIIQQLPQQAQIQAKVNLYQSLSAEISKESQQ | 0.118 |
| HMTATSKKAAWDEVNKIFPTDYERSAAESERAGYAIFRSTAEGVNAWISDLGDRLEINLPDGKTVNIWIEE | -0.282 |
| HMIPLPEDVASMRERLALTPEKADELFGLEDGSFARYEHGEEKVPFVVFQLLWLLGKYPHLIGELR | -0.818 |
| HMLMTGSLQTKHGKYYVVVRIPDGLGNTKAKWINTGIPTDGNNKRKAQQRRIEILTELEENKD | -1.84 |
| HMKRNLVSVLDHIVGIGPKRRQSLRTHFGSLEKIKEASVEELAAAPGMNRTSAEAVRHFFDAQQELRGK | 0.537 |
| HMDLPGIVTETDRQRADLAARIGAAKVEAVLAGGARSVEADEDFDADTRRELHQFLTRMARRAFLEER | -0.0484 |
| HMFQRLPFSFANRYKMVLEYQHPERPPVLYYVEPLKAAAILEVSRVIKSGFTPQAIVSDEFEKKLTEAYQR | -1.1 |
| HMLETLVYPNPTTDKILLSSPVDYHLFSLKGELVLEGRGSSIEVSQLSKGVYFLNTKTQTFKIIK | -0.383 |
| HMVKLDDLTGQDKATAEATITNSGLKYSEQQEFSDEVEAGKVIRTDPGAGTSSLKAGDTVTVYVSRGPEN | -0.0778 |
| HMPSLAVYPNPVKDILNIATDKPVHSIRIYNVYGSEVLRAADTNRIDVSHLPAGVYMVSADGKVTRIIK | -0.462 |
| HMEGAEDMNRALALAFLRDNSRSTVAQLAEHLGSSKRSAERLVAQLKDEGVLERQGSPRAGLWIVHI | -0.0818 |
| HMLTSIDQMLKLAMPDSDITVSKMNGLILLTGTVKAPEDAAEAERLVQAFSAPPPGQPPVTVVSRLRTA | 0.0549 |
| HMELADLPSAQIREILAYVYRAPLEKRRDPSIHWLLIAAHKLTLPLLDRLDPADARALGERYGADYP | 0.132 |
| HMNPDTERIREFVAVSLKNRKVATSGEIQNMIVKQFKNFKLKSHGYSNMKSFLSSIDKIQLNSNGKYSLK | -0.355 |
| HMVSSAEQQARDKESGMILVQEAGGPDKARALVEKMRQDIRNPALDGTRRQMLRGHVARIELALAELETG | 0.00436 |
| HMSQVSTKYINVSSAYVRSKPSKDGEIVTSLIKNTDVTVTGENGDWYKIKFNNYEGYIFKELLSDSKLEE | 0.15 |
| HMDTNVPVPNVNGMTLNQAKAALEAAGFHVAVNWLGEKSDNNSVISYEPNGSAAKGTTITITVIAQPEQDG | 0.0386 |
| HMKHAIKEKIRNEYVHGYLNEEGYRVMPTLDELIRKYEVPASSTYRASSKEGWKKQKEAFLEHLRGEIDA | -0.139 |
| HMAPAYELTEEETKIIEILKANENIDLNELKSQAALSGKKWDKSMKNLAKYNLTKVTVDGDAKTVAYLA | 0.0932 |
| HMAQELPYEKVTMNGKMFYVYHVKAGEGLYLISRTFSVNADEILKFNPSIENGLKSGQVLYIPIK | -0.0691 |
